The target in this assay is T1, wild-type full-length FADD (FADD^FuL) (human), Q13158.
T1 chain: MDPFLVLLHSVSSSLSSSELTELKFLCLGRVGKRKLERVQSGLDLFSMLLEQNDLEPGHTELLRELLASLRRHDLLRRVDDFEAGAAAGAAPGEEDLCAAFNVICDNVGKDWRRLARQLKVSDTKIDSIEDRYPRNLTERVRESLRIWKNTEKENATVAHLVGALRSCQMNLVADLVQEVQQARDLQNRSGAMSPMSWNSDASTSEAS
As to the kind of experiment: cryo-EM structure; FA^FuL-C8^FuL_FGLG_CADA-CF complex; Complex A without cross-linking (7.5 Å) and Complex B stabilised by GraFix, glutaraldehyde (3.7 Å); Casp-8 protease domain and FADD DD not visible. Particulars: remark: other sources report otherwise.

The text below walks through data of PMC11074299.

B1: wild-type full-length FADD (FADD^FuL), Q13158 1-208 (natural protein)
chain: T1 chain
Take B1: the stoichiometry N (commonly a count of units in the complex or per binding partner) was 3.
